target: Biotinylated human ACE2 ectodomain (ACROBiosystems AC2-H82E6), native dimeric form (human) (UniProt Q9BYF1); test: FACS
Sequence (Q9BYF1 18-740): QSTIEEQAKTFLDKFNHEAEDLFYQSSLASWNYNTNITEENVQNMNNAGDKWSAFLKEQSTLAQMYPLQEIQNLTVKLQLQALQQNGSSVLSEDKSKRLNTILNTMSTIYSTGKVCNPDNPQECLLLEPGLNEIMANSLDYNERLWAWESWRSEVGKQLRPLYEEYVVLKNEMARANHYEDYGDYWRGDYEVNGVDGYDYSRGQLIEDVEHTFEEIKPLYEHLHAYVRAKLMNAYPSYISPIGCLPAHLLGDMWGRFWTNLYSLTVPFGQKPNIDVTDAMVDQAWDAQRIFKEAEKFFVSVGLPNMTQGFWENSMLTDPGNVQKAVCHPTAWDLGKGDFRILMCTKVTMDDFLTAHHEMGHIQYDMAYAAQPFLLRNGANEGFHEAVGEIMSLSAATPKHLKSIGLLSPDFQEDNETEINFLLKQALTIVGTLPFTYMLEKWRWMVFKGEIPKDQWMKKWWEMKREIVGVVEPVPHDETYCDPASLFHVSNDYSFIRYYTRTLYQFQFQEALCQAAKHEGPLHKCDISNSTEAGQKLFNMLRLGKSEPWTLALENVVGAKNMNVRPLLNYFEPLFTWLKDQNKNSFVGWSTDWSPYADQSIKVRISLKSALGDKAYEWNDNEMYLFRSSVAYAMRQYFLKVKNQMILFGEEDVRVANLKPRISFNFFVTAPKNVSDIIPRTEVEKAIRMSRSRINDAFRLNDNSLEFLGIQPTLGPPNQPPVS

First: WIV1 RBD, yeast-displayed
Second: ZC45 RBD, yeast-displayed
The Kd of the first is lower: 0.017 nM for the first, > 1000 nM for the second. The first binds more tightly here.

With ZXC21 RBD, yeast-displayed the Kd was > 1000 nM.
